From paper PMC4446440, “Structural and functional analysis reveals that human OASL binds dsRNA to enhance RIG-I signaling” (Nucleic Acids Research, 2015)

Columns and labels:
[1] = molecular target: T1, OLD (OAS-like domain of OASL) wild type (Homo sapiens, UniProt Q15646 1-350); test: EMSA; OLD 2.4 uM, dsRNA 0-8.6 uM, protein stained; 1.5 mM Mg2+; 100 mM DL-malic acid pH 5.9, 200 (unit not given) Na2SO4, 300 mM NaCl, 1.5 mM MgCl2, 2 mM BME, 5% glycerol; 37 C 15 min; native PAGE in 0.5x TBE; settings: protein: recombinant; tags: C-terminal 6xHis; blunt
T1 sequence: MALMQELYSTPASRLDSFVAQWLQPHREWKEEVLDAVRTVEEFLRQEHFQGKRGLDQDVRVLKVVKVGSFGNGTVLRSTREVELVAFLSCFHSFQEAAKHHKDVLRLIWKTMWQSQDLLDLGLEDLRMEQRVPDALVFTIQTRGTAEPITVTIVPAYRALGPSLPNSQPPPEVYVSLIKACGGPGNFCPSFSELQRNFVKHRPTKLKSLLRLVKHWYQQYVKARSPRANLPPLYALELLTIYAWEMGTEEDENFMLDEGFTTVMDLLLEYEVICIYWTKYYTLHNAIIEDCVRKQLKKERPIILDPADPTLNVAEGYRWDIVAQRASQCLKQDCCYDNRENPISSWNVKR

[2] = molecular target: the molecule itself; test: SEC; analytical, Superdex 200 PC3.2/30; OASL run in 50 mM Tris-HCl pH 9, 500 mM NaCl, 10% glycerol, 1.5 mM MgCl2, 1 M urea, 1 mM BME; calibrated with Blue Dextran and albumin

B1: 18 bp dsRNA (dsRNA)
RNA 1: GGCUUUUGACCUUUAUGC
RNA 2: GCAUAAAGGUCAAAAGCC
- binding result [1]: binds

B2: full-length OASL (human 2'-5' oligoadenylate synthetase-like protein), recombinant from insect cells (natural protein, UniProt Q15646 1-514, looked up)
chain: MALMQELYSTPASRLDSFVAQWLQPHREWKEEVLDAVRTVEEFLRQEHFQGKRGLDQDVRVLKVVKVGSFGNGTVLRSTREVELVAFLSCFHSFQEAAKHHKDVLRLIWKTMWQSQDLLDLGLEDLRMEQRVPDALVFTIQTRGTAEPITVTIVPAYRALGPSLPNSQPPPEVYVSLIKACGGPGNFCPSFSELQRNFVKHRPTKLKSLLRLVKHWYQQYVKARSPRANLPPLYALELLTIYAWEMGTEEDENFMLDEGFTTVMDLLLEYEVICIYWTKYYTLHNAIIEDCVRKQLKKERPIILDPADPTLNVAEGYRWDIVAQRASQCLKQDCCYDNRENPISSWNVKRARDIHLTVEQRGYPDFNLIVNPYEPIRKVKEKIRRTRGYSGLQRLSFQVPGSERQLLSSRCSLAKYGIFSHTHIYLLETIPSEIQVFVKNPDGGSYAYAINPNSFILGLKQQIEDQQGLPKKQQQLEFQGQVLQDWLGLGIYGIQDSDTLILSKKKGEALFPAS
notes: human OASL, full length (printed as 61 kDa); OAS-like domain (residues 1-350) followed by two ubiquitin-like domains; also called OAS-like protein
- binding result [2]: binds
